Assay results from the nanobody polyreactivity screen of Harvey et al. (2022).

Experiment: yeast display, Sf9 membrane polyspecificity reagent, FACS + sequencing; frameworks hold sequencing errors
In short: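 Galactose induction of a Saccharomyces cerevisiae BJ5465 synthetic nanobody display library ran 36–48 hours. The cells were then stained for 1 hour at 4 °C with 10% biotinylated, detergent-solubilized Sf9 membrane reagent, pulled down on streptavidin microbeads and FACS-sorted into low and high (top ~1%) gates on expression and reagent-binding fluorescence. Labels for polyreactivity follow the gate of origin.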

Sequence: QVQLVESGGGLVQAGGSLRISCAASGFIFVRYAMGWYRQAPGKEREFVAVISRRGGSTHYADSVKGRFTISRDNAKNTVYLQMNSLKPEDTAVYYCAAVRRVYSQNDYWGQGSQVTVSS
- polyreactivity (PSR sort gate): high polyreactivity

Sequence: QVQLVESGGGLVQAGGSLRISCAASGFILYYYAMGWYRQAPGKERELVAAISRNGGRTYYAVSVKGRFTISRDNAKNTVYLQMNSLKPEDTAVYYCNKGVSRTLSSAYDYWGQVTQVTVSS
- polyreactivity (PSR sort gate): high polyreactivity

Sequence: QVQLVESGGGLVQAGGSLRISCAASGFISYYYAMGWYRQAPGKERELVAAITKSGGSTYYADSVKGRFTISRDNAKNTVYLQMNSLKPDDTAVYYCAADRSTRNSTSRLYGYWGQGTQVTVSS
- polyreactivity (PSR sort gate): low polyreactivity

Sequence: QVQLVESGGGLVQAGGSLRISCAASGFSFRYYAMGWYRQAPGKERELVAAISGSGGSTYYADSVKGRFTISRDNAKNTVYLQMNSLKPEDTAVYYCARYYTYREYDYWGQATQVTVSS
- polyreactivity (PSR sort gate): high polyreactivity

Sequence: QVQLVESGGGLVQAGGSLRISCAASGFTFPYYAMGWYRQAPGKERELVAAISYNGGSTYYADSVKGRFTISRDNAKNTVYLQMNSLKPEDTAVYYCNAVYYDSGVVGYYYWGQGTQVTVSS
- polyreactivity (PSR sort gate): high polyreactivity

Sequence: QVQLVESGGGLVQAGGSLRISCAASGFTFRKYTMGWYRQAPGKERELVAAISRRGGSTYYADSVKGRFTISRDNAKNTVYFQMNSLKPEVTAVYYCATDHIPSVGVDYWGQGTQVTVSS
- polyreactivity (PSR sort gate): high polyreactivity

Sequence: QVQLVESGGGLVQAGGSLRISCAASGFTFRYYALGWYRQAPGKERELVAAILSSGGSTYYADSVKGRFTISRDNAKNTVYLQINSLKPVDTAVYYCNKVWDRRYDYWGQGTQVTVSS
- polyreactivity (PSR sort gate): high polyreactivity

Sequence: QVQLVESGGGLVQAGGSLRISCAASGFTFRYYAMGWYRQAPGKERELVATISTGSGVSTYYADSVKGRFTISRDNAKNTVYLQMNSLKPEDTAVYYCAADYDSYYAYRTPYGYWGQGTQVTVSS
- polyreactivity (PSR sort gate): low polyreactivity

Sequence: QVQLVESGGGLVQAGGSLRISCAASGFTFWRYALGWYRQAPGKERELVAAISTGGSTNYADSVKGRFTISRDNAKNTVYLQMNSLKPEDTAVYYCNRQWNFTPYRRNYWGQGTQVTVSS
- polyreactivity (PSR sort gate): high polyreactivity

Sequence: QVQLVESGGGLVQAGGSLRISCAASGFTFYRYAMGWYRPAPGKERELVASIRRSDGSTSYADSVKGRFTISRDNAKNTFYLQMNSLKPEDTAVYYCAARYAGSSRYDYWGQGTQVTVSS
- polyreactivity (PSR sort gate): high polyreactivity

Sequence: QVQLVESGGGLVQAGGSLRISCAASGFTFYYNAMGCYRQAPVKERELVAIRFRGGNTYYAYSVKGRFTISRDNAKITVYLQMNSLKPEDTAVYYCTADDRGSTYVYFDYWGQGTQVTVSS
- polyreactivity (PSR sort gate): low polyreactivity

Sequence: QVQLVESGGGLVQAGGSLRISCAASGGTFHRYAMGWYRQAPGKERELVAAISGSGASTYYADSVKGRFTISRDNAKNTVYLQMNSLKPEDTAVYYCNAYYYPYWYRYYYWGQGTQVTVSS
- polyreactivity (PSR sort gate): high polyreactivity

Sequence: QVQLVESGGGLVQAGGSLRISCAASGIILSDNAMGWYRQAPGKEREFVAAITGSGGSTYYADSVKGRFTISRDNAKNTVYLQMNSLKPEDTAVYYCAADGPYGYYYGHYGYWGQGTQVTVSS
- polyreactivity (PSR sort gate): low polyreactivity

Sequence: QVQLVESGGGLVQAGGSLRISCAASGITFRWYAMGWYRQAPGKERELVAGINSSGGSTNYADSVKGRFTISRDNAKNTVYLQMNSLKPADTAVYYCNADLRSEYDYWGQGTQETVSS
- polyreactivity (PSR sort gate): low polyreactivity

Sequence: QVQLVESGGGLVQAGGSLRISCAASGITFTGYAMGWYRQAPGKEKELVAAIRGGGNTYYADSVKGRFTISRDNAKNTVYLQMNSLKPEDTAVYYCATSYASYTYWYDYWGQGTQVTVSS
- polyreactivity (PSR sort gate): low polyreactivity

Sequence: QVQLVESGGGLVQAGGSLRISCAASGITITSYAMGWYRQAPGKEWELVASIDSDDSTNYADSVKGRFTISRDNAKNTVYFQMNSLKPEDNAVYYSAATSKPLGLKTYGYWGQGTQVTVSS
- polyreactivity (PSR sort gate): low polyreactivity

Sequence: QVQLVESGGGLVQAGGSLRISCAASGITLYDNVMGWYRQAPGKERELVAAISSSGTTKYYADSVKGRFTMSRDHANNTVYLQMNSLKPEDTAGSYCAADGITWYAIAYYYWGQGTQVTVSS
- polyreactivity (PSR sort gate): high polyreactivity
